Laboratory results taken from PMC1475753.

Key:
[1] = target: T1, φ29 DNA polymerase K538A (bacteriophage φ29, UniProt P03680 1-575, K538A); test: EMSA
T1 sequence: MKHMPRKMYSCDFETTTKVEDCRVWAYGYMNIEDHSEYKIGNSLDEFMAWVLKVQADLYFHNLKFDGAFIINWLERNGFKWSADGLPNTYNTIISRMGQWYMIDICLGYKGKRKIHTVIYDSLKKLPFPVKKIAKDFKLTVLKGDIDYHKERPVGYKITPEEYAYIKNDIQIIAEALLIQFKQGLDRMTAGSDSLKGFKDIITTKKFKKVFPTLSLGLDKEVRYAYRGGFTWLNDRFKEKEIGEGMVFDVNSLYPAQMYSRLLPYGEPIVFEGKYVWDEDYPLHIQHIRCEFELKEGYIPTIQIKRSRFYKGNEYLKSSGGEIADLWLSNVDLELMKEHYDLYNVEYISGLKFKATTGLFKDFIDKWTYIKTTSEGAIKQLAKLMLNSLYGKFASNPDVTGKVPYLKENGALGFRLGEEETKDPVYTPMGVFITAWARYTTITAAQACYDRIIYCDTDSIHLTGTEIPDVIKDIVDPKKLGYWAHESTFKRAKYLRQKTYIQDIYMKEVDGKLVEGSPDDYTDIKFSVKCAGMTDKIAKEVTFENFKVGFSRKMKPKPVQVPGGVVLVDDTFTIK

[2] = target: T2, φ29 DNA polymerase T573A (bacteriophage φ29, UniProt P03680 1-575, T573A); test: EMSA
T2 sequence: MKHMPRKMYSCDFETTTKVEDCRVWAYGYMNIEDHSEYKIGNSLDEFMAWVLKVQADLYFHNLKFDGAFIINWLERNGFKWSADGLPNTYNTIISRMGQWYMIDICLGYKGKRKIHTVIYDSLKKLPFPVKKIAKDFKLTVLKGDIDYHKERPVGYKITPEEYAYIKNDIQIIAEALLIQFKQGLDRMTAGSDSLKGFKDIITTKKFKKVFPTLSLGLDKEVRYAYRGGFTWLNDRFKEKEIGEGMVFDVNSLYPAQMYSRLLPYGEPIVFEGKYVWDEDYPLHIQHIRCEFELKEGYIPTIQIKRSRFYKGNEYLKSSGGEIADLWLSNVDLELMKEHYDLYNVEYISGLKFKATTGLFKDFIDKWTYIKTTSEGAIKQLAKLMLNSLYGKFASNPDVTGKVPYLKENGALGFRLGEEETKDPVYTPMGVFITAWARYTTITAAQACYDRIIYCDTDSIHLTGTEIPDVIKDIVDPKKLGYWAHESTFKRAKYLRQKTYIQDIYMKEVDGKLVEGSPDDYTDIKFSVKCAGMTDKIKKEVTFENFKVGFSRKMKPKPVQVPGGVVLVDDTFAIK

B1: sp1/sp1c+6 (15/21mer) (dsDNA)
DNA 1: GATCACAGTGAGTAC
DNA 2: TCTATTGTACTCACTGTGATC
- binding result [1]: no binding
- binding result [2]: no binding
